The results in this text go back to article doi:10.1101/2025.07.03.659157, “Transient Poly(ADP-Ribose) Triggers FUS Condensation Hysteresis via a Prion-Like Mechanism” (bioRxiv, 2025).

Data set [1] concerns FUS with all 15 RGG3-PY arginines to alanine. Briefly: fluorescence anisotropy or EMSA (method not given). The conditions noted are these: poly(ADP-ribose); length not given in material; EMSA and anisotropy: 50 mM Tris-HCl pH 7.5, 100 mM KCl, 10 mM beta-mercaptoethanol, 0.1 mg/mL BSA, 2 mM MgCl2, 23 C, 30 min; single-molecule: 20 mM Tris-HCl pH ….
Data set [2] concerns FUS RGG3-PY fragment. In words: fluorescence anisotropy. As to conditions: poly(ADP-ribose); length not given in material; EMSA and anisotropy: 50 mM Tris-HCl pH 7.5, 100 mM KCl, 10 mM beta-mercaptoethanol, 0.1 mg/mL BSA, 2 mM MgCl2, 23 C, 30 min; single-molecule: 20 mM Tris-HCl pH ….
Data set [3] concerns [RGRGG]5 peptide. Briefly: EMSA. The conditions noted are these: poly(ADP-ribose), 16 ADP-ribose units; no base sequence; EMSA and anisotropy: 50 mM Tris-HCl pH 7.5, 100 mM KCl, 10 mM beta-mercaptoethanol, 0.1 mg/mL BSA, 2 mM MgCl2, 23 C, 30 min; single-molecule: 20 mM Tris-HCl pH ….
In data set [4] the test system is [RGYGG]5 peptide. In words: EMSA. The conditions noted are these: poly(ADP-ribose), 16 ADP-ribose units; no base sequence; EMSA and anisotropy: 50 mM Tris-HCl pH 7.5, 100 mM KCl, 10 mM beta-mercaptoethanol, 0.1 mg/mL BSA, 2 mM MgCl2, 23 C, 30 min; single-molecule: 20 mM Tris-HCl pH ….
Data set [5] deals with [KGKGG]5 peptide. Briefly: EMSA. The conditions noted are these: poly(ADP-ribose), 16 ADP-ribose units; no base sequence; EMSA and anisotropy: 50 mM Tris-HCl pH 7.5, 100 mM KCl, 10 mM beta-mercaptoethanol, 0.1 mg/mL BSA, 2 mM MgCl2, 23 C, 30 min; single-molecule: 20 mM Tris-HCl pH ….
In data set [6] the test system is [KGYGG]5 peptide. Briefly: EMSA. The conditions noted are these: poly(ADP-ribose), 16 ADP-ribose units; no base sequence; EMSA and anisotropy: 50 mM Tris-HCl pH 7.5, 100 mM KCl, 10 mM beta-mercaptoethanol, 0.1 mg/mL BSA, 2 mM MgCl2, 23 C, 30 min; single-molecule: 20 mM Tris-HCl pH ….
Data set [7] has as its target T1, His-MBP-tagged PrLD (prion-like domain) of FUS (Fused in Sarcoma).
T1 chain: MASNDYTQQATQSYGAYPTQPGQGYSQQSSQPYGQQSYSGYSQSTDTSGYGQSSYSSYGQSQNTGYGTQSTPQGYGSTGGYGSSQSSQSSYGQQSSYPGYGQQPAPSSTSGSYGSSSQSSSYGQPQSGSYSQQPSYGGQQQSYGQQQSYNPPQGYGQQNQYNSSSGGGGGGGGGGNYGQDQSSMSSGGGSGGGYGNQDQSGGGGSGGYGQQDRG
Briefly: BLI.

Data set [8] concerns the target T2, His-MBP-tagged PrLD (prion-like domain) of FUS (Fused in Sarcoma).
T2 chain: T1 chain
Briefly: BLI; His-MBP-tagged PrLD (400 nM) immobilised on HIS1K (anti-His) biosensors; analyte in PBSA (PBS + 0.1% BSA), MBP-tagged CTRR at 0.4, 1, 2, 5 and 12 uM; association 600 s, dissociation 600 s; Octet RED96; association phase fitted to an exponential kinetic binding model. As to conditions: both partners purified.

For AF488-PAR (anisotropy), in data set [1], the binding signal (fold weaker than wild-type FUS) amounted to 2.7. The same molecule returned a binding signal (fold weaker than full-length FUS) in data set [2] of 3.

With Cy3-PAR 16-mer, the dissociation constant (Kd) in data set [3] amounted to 0.8 µM; in data set [4], 10 µM; in data set [5], 24 µM; in data set [6] it was 29 µM.

B1: MBP-tagged CTRR (C-terminal RGG-rich region, RGG2-ZnF-RGG3-PY) of FUS (domain or fragment)
chain: RADFNRGGGNGRGGRGRGGPMGRGGYGGGGSGGGGRGGFPSGGGGGGGQQRAGDWKCPNPTCENMNFSWRNECNQCKAPKPDGPGGGPGGSHMGGNYGDDRRGGRGGYDRGGYRGRGGDRGGFRGGRGGGDRGGFGPGKMDSRGEHRQDRRERPY
modifications: MBP tag omitted. Limits are not printed: start taken just after the RRM (285-371), running to the C-terminus (RGG2-ZnF-RGG3-PY). Zn2+ in the RanBP2-type zinc finger. His-MBP tag omitted. Limits are not printed: 1-214 is the conventional FUS PrLD/low-complexity domain, and it includes Y177, which the paper places in the PrLD.
In data set [7], B1 had a koff of 0.00052 s⁻¹.

B2: MBP-tagged CTRR (C-terminal RGG-rich region, RGG2-ZnF-RGG3-PY) of FUS (domain or fragment)
chain: B1 chain
modifications: MBP tag omitted. Limits are not printed: start taken just after the RRM (285-371), running to the C-terminus (RGG2-ZnF-RGG3-PY). Zn2+ in the RanBP2-type zinc finger. / His-MBP tag omitted. Limits are
With B2, the Kd in data set [8] is 1.37 µM.
